# Test: soluble on expression in E. coli; label from the status in PepcDB or PDB records
row,Sequence,soluble on expression in E. coli
1,MNMYSMPGYFQNMPTIGKELVNPNPENEQEIKAVESDIHESIKKALDAGITSEEKLNERGQLSAMQRINALIDPGTWCPLNSLFNPENNKFGTTNIVNGLGRVDGKWVYIVASDNKKMAGAWVPGQAENLIRCSDAAKMMHLPLIYLLNCSGVEFPNQDKVYPNRRGGGTPFFRNSELNQLGIPVIVGIYGTNPAGGGYHSISPTILIAHQDANMAVGGAGILSGMNPKGYIDDEAAEQIIAAQIENSKLKVPAPGSVPIHYDETGFFREVYQNDLGVIDGIKKYISYLPAYNLEFFRVDTPKAPQLPAEDLYSIIPMNQKRPYDIYEVIARLFDNSEFSEYKKGYGPEMVTGLAKVNGLLVGVIANVQGLLMNYPEYKQNSVGIGGKLYRQGLIKMNEFVTLCARDRIPLIWLQDTTGIDVGDEAEKAELLGLGQSLIYSIENSKLPSLEITIRKASAAAHYVLGGPQGNNTNVFSIGTGACEYYVMPGETAANAMYSRKLVKAKKAGEDLQPIIGKMNDMIQMYTDKSRPKYCTEKGMVDEIVDMTEVRPYIQAFTEAAYQNPQSICPMHQMLTPRSTREFETFGK,soluble
2,DIVLTQSPTTMAASPGEKITITCSASSSISSNYLHWYQQKPGFSPKLLIYRTSNLASGVPARFSGSGSGTSYSLTIGTMEAEDVATYYCQQGSSIPLTFGAGTKLELKRADAAPTVSIFPPSSEQLTSGGASVVCFLNNFYPKDINVKWKIDGSERQNGVLNSWTDQDSKDSTYSMSSTLTLTKDEYERHNSYTCEATHKTSTSPIVKSFNRNEC,soluble
3,MSRNRVMSIDFQQLPHAGIRSLIPYVPGKSIEELAKEKGITDIIKLASNENPLGCSPLALSVIQTMSSHYIATYPSPWNHPLMSKLASYLKVKPEQLFLSNGSDYLFNILLNCFALHTDRHILTHDYAFSTYAIQANSLQIPINSVPIGHNWEVNITDIVNACNQQTGIIFIANPNNPTGVLIQQEEIKYLLEQIPKSTLLVLDEAYYEFAASQLTVNSLDWLEEHPNLVVTRTFSKIYGMAGLRLGYAIANPSIINILKRVQLPFIVNQVALAAAYAAIDDDDFIQSSLKMNNEGMLQLQAGFNELNIKYLPSSCNFLTFDCEEDSMALYNYLLDNGIIVRPLHAYKMNNFIRVTIGTKEQNSRFLTALKNFYL,not soluble
4,MENPMNTDHTKRNLFELYAELIHQQEKWEGLIKAFLSDELRKLDVEHGSKSQLTMTEIHVLSCVGDNEPINVTSIAEKMNTTKATVSRISTKLLGAGFLHRTQLSDNKKEVYFRLTPAGKKLHSLHKYYHQKAEQRFLSFFDRYTEEEILFAERLFRDLVTKWYPSSEEIEGGLPSIFK,not soluble
5,MCIGVPVQVISPGQWFAKCRDRHGELIDVDIRLVAPPLAGAWLLTFGGAARREMDEAEAAEVLAALDSLEQAMLTQSDPLTGFADLLSRTPELPEHLKK,not soluble
6,MGSDKIHHHHHHMQPLLQLQGITKSFPGVKALSGAALNVYPGKVMALVGENGAGKSTMMKVLTGIYRKDAGSIHFLGQEVDFNGPKASQEAGIGIIHQELNLIPQLTIAENIFLGREFTNRFGRIDWNKMYAEADKLLKRLNLRYDSRRMVGDLSIGDQQMVEIAKVLSFESKVIIMDEPTDALTDTETASLFSVINELQSQGCGIVYISHRLKEIFEICDDITVFRDGQFIGERPVSDLEEDTLIEMMVGRKLEDQYPRSNKAPGEVRLKVQNLSGPGVDSVSFTVRKGEILGVAGLMGAGRTELMKILYGALPRTGGNVTLDGRDVVTRKPQDGLANGIVYISEDRKRDGLVLGMSVKENMSLTALRYFSHAGGRLKHAEEQLTVADFIRLFNVKTPSMEQPIGLLSGGNQQKVAIARGLMTRPNVLILDEPTRGVDVGAKKEIYQLINQFKEEGLSIILVSSEMPEVLGMSDRIIVMHEGRLSGDFPIEQATQEALMAAAVGKQYGAKQE,not soluble
7,MEGQENKVLFGLENVHYATYSETDGVITYDTPKPLPGGVEISVEPQGDMIKFYADNIVYYQAPNNQGYEGTLTIASIPEGFATDCLGEELDTVDGVLTEKSDAKPKPFALLFEFDGDVKSVRQVLYNCTASRPTVASSTLEHHHHHH,soluble
8,MVEYVNQAHEDITGIARDKSIGTNLRDLTFFRQHNALAEQTLAKIFRGDQAKGEVQFSRTDGSRYWLKYIVSQFITDRGNHYALVSGEENSDEHNYKAELEHHHHHH,not soluble
9,MFKSVAKLGKSPIFYLNSQRLIHIKTLTTPNENALKFLSTDGEMLQTRGSKSIVIKNTDENLINHSKLAQQIFLQCPGVESLMIGDDFLTINKDRMVHWNSIKPEIIDLLTKQLAYGEDVISKEFHAVQEEEGEGGYKINMPKFELTEEDEEVSELIEELIDTRIRPAILEDGGDIDYRGWDPKTGTVYLRLQGACTSCSSSEVTLKYGIESMLKHYVDEVKEVIQIMDPEQEIALKEFDKLEKKLESSKNTSHEK,soluble
10,MSLNHVRPWRNIHRRKSRQIMVGNVPVGGDAPISVQTMTNTITADAPATIAQVLRAAEAGADIVRVSVPDEASTRALKEIVAASPVPIVADIHFHYKRAIEAAEAGAACLRINPGNIGDASRVREVIKAARDHGCSMRIGVNAGSLEKHLLDKYGEPCPEAMVESGLDHIKILQDNDFHEFKISVKASDVFLAAAAYQALADATDAPIHLGITEAGGLTAGTVKSAVGLGNLLWSGIGDTLRVSLSADPVEEVKVGYEILKSLGLRHRGVTIISCPSCARQGFDVIKTVAELEDRLAHVTTSMSLSIIGCVVNGPGEALMTDIGFTGGGNGSGMVYLAGKQAHKLGSERMIDEIVSMVESRAAEIEAEKLAAAEAAE,not soluble
11,MPKIPITLITGFLGSGKTSFLSEYLNQTDHQGVALIINEIGQAALDQRILSVQYCGEKMLYLNAGCVCCNKRLDLVESLKATLNNYEWHGEILRRIIIETTGLANPAPILWTILSDTFLGVHFEIQSVVACVDALNAREHLTNNEAKEQIVFADSVLLTKTDLQNDSAALTKLKERIQALNPSAEIFDKRAIDYESLFSRKNRARNFMPLEHHHHHH,not soluble
12,MIRGLRQIEPYVAGVQPAERKMIKLNTNENAYGASPKVREALANFDVDNLRKYSTLEQADLRAALANNLKVKPEQLMIANGSDDVLSIAFLAFFNNDEPVLFPDLTYGFYKVWADLYRVNYHEIPLAEDFTINTEDYLADNGGIILTNPNAPTGIYKPLNEIEKLLKANQDTVVIIDEAYISFGGQSALSLLNKYNNLVITRTFSKDAALAGLRVGYAIANEPLIAVMNAVKHSINPYSVDLLAERLATAAVEDWSYYQENAKKIQKTRAWFSEQLVKQGFDVLPSQANFVLTKPHDLATAKLFEELEARKIYVRYFPKVERIKDYLRISMGTQEEMEEVVKAIEEIRG,soluble
13,HEEHLMVPKGVEVYEINGPYFFGIATKFEEIMSELGDRPKVRIVRMRKVPFIDSTGIHNLTNLCEMSKKENIQIVLSGVNEKVHQILEKSGFNELLGKENICPNINVALEKAK,not soluble
14,MTVASTLGLNETQYATDDCLEEIINNTRAVRQDSEKTRFKLQINNFLAEVASGSLVINSDLIGSIEKRIADIDKLMSEQLSLIMHATEFQKIESAWTGLYKLVQASVTENVKYTVLHCTKKELLKDFKSASDFDQSVLFKNIYESEYGTFGGTPYSAFVGDFYFDNTPQDIDLLEHISHVAASAHAPFLSAIAPGMLSMSSFSELPYPRDLAKLFETTDYARWRSFRQTDDSRYVGLTLPQSLGRIPYGMKTIPAETFNFEEHISEDNSGKDYLWVNTAFELACRIVDAFEEYGWCAAIRGVEGGGLVKSLPAYNYVSHTGERLLQCPTEVAISDRREKELSDLGFIPLVYCKGTDFAAFFAVQSVNKARLYNTDQANANAKLSSQLQYILATSRFAHYLKVIVRDKVGSFMSRTECQTYLQNWIMQYVVASDNAGQETKARYPLREASVEVIEVPGSPGNYRAIAWIKPHFQLEGLSMSLRLVADLPSSVS,not soluble
15,MGHHHHHHSHMTAYSVGMGAEIQLCSHPIGLSKNQSRNPTKTLDSAKILACSLAQSKQPIRWEADPYNNIVYSIYYMELTLPTTPCRMLPQYQEKYGAVGRGTPYWIYYRKTLYLEIPLSERVGLKGGDTKMGIQDGTHQRDPPFYKPTPPPHIPPVLEKHTGWSYLCGYTWWTP,not soluble
16,MSDSHHKPVWDRTHHAKMATGIGDPQCFKGMAGKSKFNVGDRVRIKDLPDLFYTRTMTYTRGATGTIVRLVYESPAAEDEAFGNEENVEWFYSIVFAQKDLWPEYSDTFANDTLETEIPERYLEKA,soluble
17,MGSDKIHHHHHHMPMIHYIFNREIVPPAIEPLLKQLFSGQNFTQSDRLLGYSKGRGITWFLNTQAELGINIVLRHYYRGGLFGKVVKDRYLFQRIDQTRAVQEFNLLTQMQRWHLPVPRPIAVEINKQSIFYRAKIMLEKIEHTQDLSKLLQTQPLVAEQYQQLGQLIRQLHDHQIHHSDLNIHNILLDDNGKFWLIDFDKCCIKAGEEWKQANLNRLLRSFHKEQTRLGIQFHQQNWQSLLTGYQQHNQGDNR,not soluble
18,MAHHHHHHMRTSDARPASPSAAPPQSRKYQLSQRPLQLPRPPPRRFLEHPHHNLLPCTSDVKRLMENEYELRRVVRDVLLERLGMEGSHVEPPLRLCTEDSAEVTASPFCAVASVSTPLSSAGESAKQPRCAHDTGLRSMRAPDVDDIAGSSQPTWLMPWLQRLRMEQEKQLRQMRKMLVVARRSVSPDSSDVDARASSLMKTTGEARDDTRTAEPPHALLWQRHRCLPPADRPEAVEACSTLRAMQETMQAQSTQLARLEELLQETLIPDTARRTSHGAGALPLPSPSVHQVEAAAAARANHTGHRSRSNDTVLPTLTHTAASPKKNVRRAVPSRSGCSADVPAAAAAAAAATSSRVSTCVSAPSPPPRLHPEKRTLCGGVH,not soluble
19,MSLDPRKVNELRAFVKMCKQDPSVLHTEEMRFLREWVESMGGKVPPATQKAKSEENTKEEKPDSKKVEEDLKADEPSSEESDLEIDKEGVIEPDTDAPQEMGDENAEITEEMMDQANDKKVAAIEALNDGELQKAIDLFTDAIKLNPRLAILYAKRASVFVKLQKPNAAIRDCDRAIEINPDSAQPYKWRGKAHRLLGHWEEAAHDLALACKLDYDEDASAMLKEVQPRAQKIAEHRRKYERKREEREIKERIERVKKAREEHERAQREEEARRQSGAQYGSFPGGFPGGMPGNFPGGMPGMGGGMPGMAGMPGLNEILSDPEVLAAMQDPEVMVAFQDVAQNPANMSKYQSNPKVMNLISKLSAKFGGQAEGHHHHHH,soluble
20,MCGLLGMLSSTGQASKYAAAIESALPCMHHRGPDEAGTWHDDHAVFGFNRLSIIDLEHSHQPLRWGPEGEPDRYAMTFNGEIYNYVELRKKLQDLGYTFNTSGDGETIAVGFHHWGADVVLHLRGMFGIAIWDTKEQRLFLARDQFGIKPLYFATTEAGTVFASEKKCILGMADAIGLDLGLDQRAIEHYIDLQYVPEPESLHQHIRRLESGCFAFVSVGGNVEQTRYFRPQFPAQEF,not soluble
21,MNIFTEAAKLEEQNCPFAMAQIVDSRGSTPRHSAQMLVRADGSIVGTIGGGMVERKVIEESLQALQERKPRLFHGRMARNGADAVGSDCGGAMSVFISVHGMRPRLVLIGAGHVNRAIAQSAALLGFDIAVADIYRESLNPELFPPSTTLLHAESFGAAVEALDIRPDNFVLIATNNQDREALDKLIEQPIAWLGLLASRRKVQLFLRQLREKGVAEEHIARLHAPVGYNIGAETPQEIAISVLAEILQVKNNAPGGLMMKPSHPSGHQLVVIRGAGDIASGVALRLYHAGFKVIMLEVEKPTVIRCTVAFAQAVFDGEMTVEGVTARLATSSAEAMKLTERGFIPVMVDPACSLLDELKPLCVVDAILAKQNLGTRADMAPVTIALGPGFTAGKDCHAVIETNRGHWLGQVIYSGCAQENTGVPGNIMGHTTRRVIRAPAAGIMRSNVKLGDLVKEGDVIAWIGEHEIKAPLTGMVRGLLNDGLAVVGGFKIGDIDPRGETADFTSVSDKARAIGGGVLEALMMLMHQGVKATKEVLEVALEHHHHHH,not soluble
